According to paper PMC4617613 (Nature, 2015):

B1: PhnI (natural protein)
chain: MYVAVKGGEKAIDAAHALQESRRRGDTDLPELSVAQIEQQLNLAVDRVMTEGGIADRELAALALKQASGDNVEAIFLLRAYRTTLAKLAVSEPLDTTGMRLERRISAVYKDIPGGQLLGPTYDYTHRLLDFTLLANGEAPTLTTADSEQQPSPHVFSLLARQGLAKFEEDSGAQPDDITRTPPVYPCSRSSRLQQLMRGDEGYLLALAYSTQRGYGRNHPFAGEIRSGYIDVSIVPEELGFAVNVGELLMTECEMVNGFIDPPGEPPHFTRGYGLVFGMSERKAMAMALVDRALQAPEYGEHATGPAQDEEFVLAHADNVEAAGFVSHLKLPHYVDFQAELELLKRLQQEQNHG
B2: PhnJ (natural protein)
chain: MANLSGYNFAYLDEQTKRMIRRAILKAVAIPGYQVPFGGREMPMPYGWGTGGIQLTASVIGESDVLKVIDQGADDTTNAVSIRNFFKRVTGVNTTERTDDATVIQTRHRIPETPLTEDQIIIFQVPIPEPLRFIEPRETETRTMHALEEYGVMQVKLYEDIARFGHIATTYAYPVKVNGRYVMDPSPIPKFDNPKMDMMPALQLFGAGREKRIYAVPPFTRVESLDFDDHPFTVQQWDEPCAICGSTHSYLDEVVLDDAGNRMFVCSDTDYCRQQSEAKNQ
B3: PhnG (natural protein)
chain: MHADTATRQHWMSVLAHSQPAELAARLNALNITADYEVIRAAETGLVQIQARMGGTGERFFAGDATLTRAAVRLTDGTLGYSWVQGRDKQHAERCALIDALMQQSRHFQNLSETLIAPLDADRMARIAARQAEVNASRVDFFTMVRGDNA

Experiments:
[1] = molecular target: the molecule itself; test: crystal structure
[2] = molecular target: B1; test: crystal structure

binding result [2] | Binder | stoichiometry N [1]
– | B1 | 2
binds | B2 | –
binds | B3 | –
